Reference: the domain aggregation screens of Martell et al. (2025)

Assay: soluble fraction after stress (log2 fold change); higher = more stays soluble; pooled small domains, quantitative proteomics
Details: stress: pH 4
Outline: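 High-throughput quantitative proteomics was run on pooled custom libraries of small protein domains following pH 4 stress. Fold changes are on a log2 scale; higher values mean more of a domain remained soluble. The fold change in soluble amount is taken as a measure of aggregation propensity.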

| Sequence | soluble fraction (log2) |
| --- | --- |
| HMGHEALSSKLDEIQGVGKEKRSLLLDHFKTFERIKNASMEELEAVPSLGKNTAKAVFRFFHS | 0.236 |
| HMNDNFTPDDLNRLARIKDLPQAKKYALELISNKSAKPMKPEKVRWFANQLQKKKSVMDITKMMYDLLLA | 0.198 |
| HMSLLQTRQRHEALAALGFFKGDVAAEWSAASTEALRAAQASLGIRVDGKWGPQTEDAIGKALAERQG | 0.108 |
| HMDTNPKVIITMDGVNVRSSASTGSDILFIAEKGEEYELISESGDFYKILYEGNKEGYVASWLVETSE | -0.022 |
| HMPPDVIENIFKNDANKIIDLYNMAPRGQKETIVEMIKNKRLQGINVDANVLVKLGELTGIDFVN | -1.37 |
| HMDLDIRDDIYRANIPNDYKLQQMQNNIDYDKVLTGYYNNRPEANVIANRTLQLANDVYNRD | -0.296 |
| HMDDGNHTEYIVLEKAKFYDEAGEYEEGRDLVLSFDKYQDNWKLVYTLGVFNKKLNNLEEARKYYKQALE | -0.846 |
| HMEELIEMNGVVMEILPDSRYRVTLDNGHKLIAYTGGKMKKNHIRILAGDKVTLELSPYDINNGRITFRHI | -0.146 |
| HMPMIQHFHRMISAALGISEKQIVQTLGLLNDGATIPFISRYRKEVTGGLDEVQIESIKTHYEKLNEIAK | -0.999 |
| HMAYSEEDRRRVREELLTTALKLMSTQGIQHTTVEQVYRSVGISRSFFYAFFPTKEDLIVEAL | -0.0412 |
| HMLDGFEVGMTVMKKSGTEIGFTGWPSFADKDELPIIERIDTSDSTLLLKFKDMSWWIKASLVEPS | -0.396 |
| HMRIHKQLGDRIRNLRLSSGMNQEELAFKSGISAAHLGQIERGLKSPTISTIQKIAKALNVTLPILF | 0.311 |
| HMEVVVPEDLDAALQQASRAQSFFSSLSYTHKKEYVAWINEAKRAETRAMRIQKTITMLESGQRGH | 0.28 |
| HMAITLEVAKKHLEMWLEAESEVAINQSYTIGGKSFTRANLAEIRKQIEYWSNKVAELENLA | -0.247 |
| HMAIDLPVTTVNGKDYYYYDVQPKETIFSLSQRLGISREEIISYNPGVDGGLKAYTRLYFPVESGL | -0.0117 |
| HMTDYREILRLLSLGLSRTQIADSLNVSRTTVIHTLQRAVAQELDWQTAEGMSDRELVAKLFPV | -0.564 |
| HMKDGAKYFQLFGLLKNEINRGIYQSGQKIPGENELAEKYGMSRQTVRQALSLLEQESLIERRQGSGTYVR | 0.185 |
| HMGNVGEAIEALVKGFQEGNQFQTLLGVTGSGKTFTMANVIAALNKPTLIISHNKTLAAQLYLSLIHIS | -0.255 |
| HMPQTNIYPNPAFDKLFVSNLENETNFKIMDLFGRTIINSKTKGEISISELKSGIYIIEINNFRQKFVK | -0.863 |
| HMNHAPSLMRKIRRGLKEGRNPDDLLVNAKSISDYYYRSLSFYLLAPHFSSKSKQYKQVISLANS | -0.151 |
| HMEWTDIPTHKVPNVVGKSVEEAKKKLSKFTIEYSGTGEKVVAQSPDAGEKLEEGGTVRLLL | 0.00183 |
| HMLVGGPDTPSKVTVSFDLGSRQAVDELTERAGAAGGRIGDIDDYPFMYQRQFDDPDGYHYSPFWMKP | -0.528 |
| HMVSLSENQKIVLESLNTAMSARELMEILNLSDISHFRRNILNPLLLEGLIVRTKPDKPKSSKQKYIKANF | -0.354 |
| HMQGQVLQETARKARSQLDSEIPGFNDALYQNLIKSSENYGYKAEEVAQWVDPRAIKVLNDAYQFQQLKAG | -0.25 |
| HMLKEDSAYELGLRIFDQALNDYGTSFIDLKEDEYKKVLSIYGYSNPRQLIINIGLGNVIPHLLARDITE | -1.17 |

| Sequence | soluble fraction (log2) |
| --- | --- |
| HMTPVSQIATKDIEEKIDSLSDEYKDPFILHFKGFKYKEIADQLDIPIGTVKSRIFIARKKLIDLLPDY | -0.391 |
| HMLYITEIQKKIMDAFLVVANESNSGTRITMNEIANKVRMTPQAIYRKHFKSVIEISDTIRD | -1.17 |
| HMRVDLATEVHSVLRRMMSRPPTLQEIRADLDGEEPGRVHEALDALRAAFRGGRGPKNPYESLKRSLRRG | -0.126 |
| HMSAMKYTSEVFQRLSRGQFISSNSIDAETRAIYSDIEENQQEYEDYFSKIDFLLSSGDGFYYFSRK | -1.22 |
| HMPAGWIPARIRLADYPQLRSLAWHVQGIDTLTPTEALDIYERNARHLDAQAMSAQEQDLLASLRLALS | -1.06 |
| HMDEFQLTPREQEILGLLVKGYTYKRIASELNLSYATVNRHVSNVYVKLRVHSVNEAVALAVRKGL | -0.543 |
| HMSSWAEGLTERERHTLMWITKGLSNKLIARELGISDSTVKVYVKNLLRKLNVNSRLELAAWVHTHPL | -0.246 |
| HMVEDFSEVLLQYIREQGGAIALNDKTDAGVIYDTFGVSKKTFKKAVGDLYKKRLIVLGDEGIRLA | -0.939 |
| HMNRETAISIYRILHILEEPYKEVFTLRTLGDLSYREIADIFGKQENWARVTYHRAKLKIREALVS | -0.71 |
| HMNMGEKIRSLIGQFGVTSEDLKNLSVANLLIRMNQEAGDSKTKGILASLLETVNKAGVGNLTPDALGIK | 0.064 |
| HMGAPVIYELTAESAAGQRIDKYLSGQLADLSRSYLQKLLKDGGVEVNKKPVKSNYKLSEGDQIRLEVPEA | -0.198 |
| HMQGPDPYAVLGIDRHADERAIKRAYRKLISEHHPDRLGDLPEDMRKRAESRASEINAAYDRIKEARGF | 0.13 |
| HMSSYTQEDVRSGILYMAQLKPRNIEEFVSTLAFSKDDIMDNLSFLVDEGFLKFDADTDTYFNPVPL | -0.604 |
| HMQKFINQEHEKAYNLMLEKDYQQALKIFDDLIYLFPNEANLLSDRGVIFIHLNKKEAALQDFDQAVF | -1.49 |
| HMALLSDEERIATVFAARLGGYSHQEIYKLLQDRFGPSLPAAYSEKSVLTDLQTALSQVPSL | -1.41 |
| HMSLRGEKTYDEAHQKLIKSAVELFKNPLVSPEKITVSQIAKHAGVSVATAYNHFPENKLDIYGSIF | -0.0613 |
| HMQPASPELNNQEKKVLQALPENEVIHIDELSDKIQIPVGELLTVLLSLEMKETVIQEPGKFFRRR | -0.886 |
| HMGKSPLDALSAREKEVLTYITRGVSINDIAAVLYLSPKTVSTHKTNLMQKLGIENNADLILFGVNHGLND | -0.897 |
| HMTQEMPAEVKKKADAFNNAMDEENYTEAKAILAELEQNTAPSYPLLLQMQTRYAFETASWE | -0.974 |
| HMVKLDDLTGQDKATAEATITNSGLKYSEQQEFSDEVEAGKVIRTDPGAGTSSLKAGDTVTVYVSRGPEN | -0.0896 |
| HMEPPPSYSALLKQISSGKVKELQLVPARREVIVTYPDGRSATVAILANDQQILRTAEAAGTPLLVK | 0.326 |
| HMSKLQETEIPVALEVEKIPGLSNELKQKLLKIKPQTIGQASRISGITPAAISILMIYIKKNESISAVK | -0.399 |
| HMTKNIIVTTSVKTSDELVEVAKNHALNLELDFNYRNKKTIKELLSSFDGLVVIYKNKISYFEDNSELF | 0.22 |
| HMGSKKAIPYVSGMSETEAQNELEEAGFKVTSSFQYDDSVESGKVISTTPEAGTKAEKGSTVTMLVSQGSN | 0.0696 |
| HMDSINGEASISRELHGTRFDQAAAILFPEFSRSRLQAWIGAGALTLDGQTARAKDKVTQGQHLVLAAAVE | -0.536 |

| Sequence | soluble fraction (log2) |
| --- | --- |
| HMTGGMVTYIIEKGEGFFSLERKFGLSENELIKLNPSLKSGLKSEMQINIPKENYDRYVASS | 0.206 |
| HMSHGFFELKTTQKEALIKLLDSHPNFTHTKTEADLTTAFLKLPMDAEQFNKLLFTNGIVLSHLVKRK | -0.276 |
| HMKRNLVSVLDHIVGIGPKRRQSLRTHFGSLEKIKEASVEELAAAPGMNRTSAEAVRHFFDAQQELRGK | 0.207 |
| HMKHVENLSDEKTIQAIQENPYMQYLLGLSKFTEKPVFVPELFVLIRKRLDQDFFNMLTLILAEADG | -0.778 |
| HMIDEPENLIQEDKMVNIIYDLALLEGVKTFNSSNFQSVKSNDFVYKKYKIDSLQFAKSTQFYASDINR | -0.404 |
| HMSQVSTKYINVSSAYVRSKPSKDGEIVTSLIKNTDVTVTGENGDWYKIKFNNYEGYIFKELLSDSKLEE | -0.35 |
| HMLLSHTAQREGELLTFLRGELALSSGLVKRLKWQNAFFLDGAPVHTNARVKPGQEITVRIEE | -1.09 |
| HMGTVVKRNALVHAWTEFNGGRASTKLLALGPGKVGEWIELENPQSGRKLRGEVQVDGSVRLG | 0.296 |
| HMSPQPPNQEAVRTRILDQAAHLFLTIGYAETTVRRIAGAVGIKAASLYHHFGSKDEVFESILIR | 0.21 |
| HMTVSLLQTRQRLQALADLGHYKGDLGAAWGPDAIEALKKAQATLGVTVDGKWGPQTEDAIQVALKVQ | -0.0459 |
| HMGTQIKSPMPGTILDVRVNVGDTVKEGDILMILEAMKMENEILAPVSGKVAAIQVSKGTAVNSGDLLAVL | -0.404 |
| HMDIFSSFVAIKNANVRELPTAKSAQVATLSKGSEVTALGKVKGKNWYLVARDGKELGYVFGSLIAEAET | 0.143 |
| HMENFYGYEIINPEAKKFFITMGVNRYALEQWIKNKSEYGLIIVKSLYPFDPRLKLFLEKNRERIQNLIF | -0.305 |
| HMQRSVEDVFVQLRNGMDTYDMTQIEDALRILHGMELSTAQRDLLDKVQEAYNDLEYETGAALLAGFERIK | -0.981 |
| HMEIEYFDDEELDAYKGRKSDSYTDEEAAQFAEVLYTMRPSEVKDWTASLTLRGISMPDQIKDEAIMLME | -0.984 |
| HMTDGYAMRLERLNSLEEYVLNKGTVSLEDLAERFGVSINTIRRDLNELISRGQIKKVYGGVSSLHD | -0.245 |
| HMDIKDRSGVTIDESNEAQQESIIRESWAEQKISGNVDNYIAYLKANGMLLETAKIELAALQEKDASLRE | -0.78 |
| HMPRRSYLDARKKLLGMLNSPDFNSGDQIPAERELSEVLGISRVTVRKIITELIDEGVLERRGNQGTWLVD | -0.48 |
| HMEVDDEAIYQGHEPSIRLHRLLKDVGYNSALLPSVVTQIFKDFPGIELAKALPIAMQLLNED | -1.47 |
| HMEDVDLFTKAMAALPNRYRDILLLRYSHGYTVEEISDILSMKPENVKKTIQRARKKLGEILEAEG | -0.202 |
| HMKTEKYIQVISGTVNVRSGPGTSYAEIAKIDASQIYVVTAKEGEWLKISLANGTIGYVAGWLVKEVTG | -0.331 |
| HMSKQDRRIRRTRRLLKESLIQLMQEKEFMNISVREVTERADLNRGTFYLHYQDTRHLLQDIENETL | -1.86 |
| HMTTGEIIQRERTRLGLSQEKLAEQVGVSRQAVSKWELGDAVPDTDKLVPLARTLGISVDTLLD | 0.0499 |
| HMTRHSSVDFAGYILRNKENEPIFGFGKHKGKTVVEVLQREQGYFGWLMEADFPLYTKKVLTAIRLNTLNS | 0.316 |
| HMQRYFINEPVPEDQRLVLPKDIAHHLVDVLRAEQNDELEVALNDQKVYLARLISLNPATVELQSDLG | -0.176 |
